These results are taken from patent US20220002344A1.

Square brackets hold non-standard residues; d marks the D form. Primed or numbered codes have the meaning given here. Ends that are not written are not given here. FITC′ = fluorescein isothiocyanate label; Cha = N[C@@H](CC1CCCCC1)C(=O)O

Assay [1] has as its target E. coli 70S ribosome particle (E. coli). As to the kind of experiment: ITC, 30 °C, peptide titrated into E. coli 70S ribosome. On the technique in general: In ITC the heat of successive injections is recorded.
Assay [2] has the same target. The experiment in a line: ITC, 30 °C, E. coli ribosome.
Assay [3] addresses E. coli sliding clamp (DnaN protein, β subunit of DNA polymerase III) (E. coli) (UniProt P0A988). The experiment in a line: cell-based or functional assay.

Sequence of E. coli sliding clamp (DnaN protein, β subunit of DNA polymerase III) (E. coli) (P0A988 whole entry): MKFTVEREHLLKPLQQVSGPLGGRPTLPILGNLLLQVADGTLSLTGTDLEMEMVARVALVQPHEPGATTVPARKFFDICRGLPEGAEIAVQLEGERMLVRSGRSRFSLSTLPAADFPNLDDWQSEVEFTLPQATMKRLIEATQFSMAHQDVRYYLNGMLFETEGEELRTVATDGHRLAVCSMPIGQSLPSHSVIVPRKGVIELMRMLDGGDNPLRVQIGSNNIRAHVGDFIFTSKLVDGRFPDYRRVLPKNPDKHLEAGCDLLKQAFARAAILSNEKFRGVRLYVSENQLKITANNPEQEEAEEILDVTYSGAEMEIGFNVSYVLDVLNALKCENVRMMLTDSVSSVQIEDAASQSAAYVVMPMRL

In general, Kd refers to the equilibrium constant for the complex coming apart. Turning to VDKGSYLPRPTPPRPIYNRNGPR[Cha]FQLD-OH [P188 (Py-P7Scr), …haGQLD-OH], in assay [1], the -TΔS came out at 5.5 kcal/mol, the Kd is 0.0758 µM, the ΔG is -9.89 kcal/mol and the ΔH is -15.4 kcal/mol.

Consider {FITC′}-VDKPPYLPRPRPPR[dR]IYN[dR]-NH2 (not fully specified) [CA3-124 (FITC-Onc112), FITC-…rIYNr-NH2], for which, in assay [2], the Kd was determined as 7.7 µM, the ΔG is -7.1 kcal/mol and the ΔH was -22.6 kcal/mol.

Turning to {FITC′}-KVDKPPYLPRPRPPR[dR]IYN[dR]GPRQ[Cha]DLF-OH (not fully specified) [CM1-92 (FITC-Onc112-P7), FITC-K-…rIYNrGPRQChaDLF-OH], in assay [3], the MIC (µM), E. coli ATCC 25922, Mueller-Hinton broth came to 16 µM.
